Data reported in article PMC10123104, “YbiB: a novel interactor of the GTPase ObgE”.

What was measured:
[1] = molecular target: T1, YbiB Arg92Glu (Escherichia coli BW25113, UniProt P30177 1-320, R92E); assay: EMSA; EMSA: 20 mM HEPES pH 7.5, 150 mM NaCl, 5 mM MgCl2, 2 mM DTT, 5% glycerol, 30 min at 37 C; 6% PAGE in 1x TBE at room temperature; conditions: protein: recombinant; tags: N-terminal His6, thrombin site (pET28a); chain copies: 2; label: 5'-32P; single strand
T1 sequence: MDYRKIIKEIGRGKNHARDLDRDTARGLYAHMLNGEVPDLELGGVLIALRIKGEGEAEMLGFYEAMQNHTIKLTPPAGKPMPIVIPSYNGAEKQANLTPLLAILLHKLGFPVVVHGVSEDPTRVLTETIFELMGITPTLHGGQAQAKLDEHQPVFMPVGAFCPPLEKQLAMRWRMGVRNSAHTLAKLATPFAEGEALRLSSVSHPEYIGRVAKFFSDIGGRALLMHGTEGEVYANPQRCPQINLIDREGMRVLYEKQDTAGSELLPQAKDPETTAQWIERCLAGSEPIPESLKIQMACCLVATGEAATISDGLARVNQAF

[2] = molecular target: T2, YbiB Arg123Glu (Escherichia coli BW25113, UniProt P30177 1-320, R123E); assay: as above; conditions: protein: recombinant; tags: N-terminal His6, thrombin site (pET28a); chain copies: 2; label: 5'-32P; single strand
T2 sequence: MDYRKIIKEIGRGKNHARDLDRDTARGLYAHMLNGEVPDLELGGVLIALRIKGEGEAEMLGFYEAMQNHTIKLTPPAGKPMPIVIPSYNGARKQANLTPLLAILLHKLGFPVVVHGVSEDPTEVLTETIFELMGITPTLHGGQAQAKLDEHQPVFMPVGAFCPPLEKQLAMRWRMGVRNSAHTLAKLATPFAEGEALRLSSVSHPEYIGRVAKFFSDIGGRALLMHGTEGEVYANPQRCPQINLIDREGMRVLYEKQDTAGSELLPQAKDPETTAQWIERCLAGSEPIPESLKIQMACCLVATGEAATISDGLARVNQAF

B1: EMSA_probe (58-nt ssDNA) (ssDNA)
DNA: GCTTTTGATGTACCAATGCATCACCATCACCATCAGGAAATGGGTAAGATGCTTGTAG
binding signal [1]: > 10 fold higher apparent KD than WT
binding signal [2]: > 10 fold higher apparent KD than WT
